# Experimental data published in patent US20230407373A1 (priority 2020, published 2023).
# B1: MATR3: host protein, UniProt P43243 (protein, UniProt P43243 2-847, looked up)
# Matrin-3: SKSFQQSSLSRDSQGHGRDLSAAGIGLLAAATQSLSMPASLGRMNQGTARLASLMNLGMSSSLNQQGAHSALSSASTSSHNLQSIFNIGSRGPLPLSSQHRGDADQASNILASFGLSARDLDELSRYPEDKITPENLPQILLQLKRRRTEEGPTLSYGRDGRSATREPPYRVPRDDWEEKRHFRRDSFDDRGPSLNPVLDYDHGSRSQESGYYDRMDYEDDRLRDGERCRDDSFFGETSHNYHKFDSEYERMGRGPGPLQERSLFEKKRGAPPSSNIEDFHGLLPKGYPHLCSICDLPVHSNKEWSQHINGASHSRRCQLLLEIYPEWNPDNDTGHTMGDPFMLQQSTNPAPGILGPPPPSFHLGGPAVGPRGNLGAGNGNLQGPRHMQKGRVETSRVVHIMDFQRGKNLRYQLLQLVEPFGVISNHLILNKINEAFIEMATTEDAQAAVDYYTTTPALVFGKPVRVHLSQKYKRIKKPEGKPDQKFDQKQELGRVIHLSNLPHSGYSDSAVLKLAEPYGKIKNYILMRMKSQAFIEMETREDAMAMVDHCLKKALWFQGRCVKVDLSEKYKKLVLRIPNRGIDLLKKDKSRKRSYSPDGKESPSDKKSKTDGSQKTESSTEGKEQEEKSGEDGEKDTKDDQTEQEPNMLLESEDELLVDEEEAAALLESGSSVGDETDLANLGDVASDGKKEPSDKAVKKDGSASAAAKKKLKKVDKIEELDQENEAALENGIKNEENTEPGAESSENADDPNKDTSENADGQSDENKDDYTIPDEYRIGPYQPNVPVGIDYVIPKTGFYCKLCSLFYTNEEVAKNTHCSSLPHYQKLKKFLNKLAEERRQKKET
# B2: MOV10: host protein, UniProt Q9HCE1 (protein, UniProt Q9HCE1 1-1003, looked up)
# Helicase MOV-10: MPSKFSCRQLREAGQCFESFLVVRGLDMETDRERLRTIYNRDFKISFGTPAPGFSSMLYGMKIANLAYVTKTRVRFFRLDRWADVRFPEKRRMKLGSDISKHHKSLLAKIFYDRAEYLHGKHGVDVEVQGPHEARDGQLLIRLDLNRKEVLTLRLRNGGTQSVTLTHLFPLCRTPQFAFYNEDQELPCPLGPGECYELHVHCKTSFVGYFPATVLWELLGPGESGSEGAGTFYIARFLAAVAHSPLAAQLKPMTPFKRTRITGNPVVTNRIEEGERPDRAKGYDLELSMALGTYYPPPRLRQLLPMLLQGTSIFTAPKEIAEIKAQLETALKWRNYEVKLRLLLHLEELQMEHDIRHYDLESVPMTWDPVDQNPRLLTLEVPGVTESRPSVLRGDHLFALLSSETHQEDPITYKGFVHKVELDRVKLSFSMSLLSRFVDGLTFKVNFTFNRQPLRVQHRALELTGRWLLWPMLFPVAPRDVPLLPSDVKLKLYDRSLESNPEQLQAMRHIVTGTTRPAPYIIFGPPGTGKTVTLVEAIKQVVKHLPKAHILACAPSNSGADLLCQRLRVHLPSSIYRLLAPSRDIRMVPEDIKPCCNWDAKKGEYVFPAKKKLQEYRVLITTLITAGRLVSAQFPIDHFTHIFIDEAGHCMEPESLVAIAGLMEVKETGDPGGQLVLAGDPRQLGPVLRSPLTQKHGLGYSLLERLLTYNSLYKKGPDGYDPQFITKLLRNYRSHPTILDIPNQLYYEGELQACADVVDRERFCRWAGLPRQGFPIIFHGVMGKDEREGNSPSFFNPEEAATVTSYLKLLLAPSSKKGKARLSPRSVGVISPYRKQVEKIRYCITKLDRELRGLDDIKDLKVGSVEEFQGQERSVILISTVRSSQSFVQLDLDFNLGFLKNPKRFNVAVTRAKALLIIVGNPLLLGHDPDWKVFLEFCKENGGYTGCPFPAKLDLQQGQNLLQGLSKLSPSTSGPHSHDYLPQEREGEGGLSLQVEPEWRNEL
# B3: NONO: host protein, UniProt Q15233 (protein, UniProt Q15233 1-471, looked up)
# Non-POU domain-containing …: MQSNKTFNLEKQNHTPRKHHQHHHQQQHHQQQQQQPPPPPIPANGQQASSQNEGLTIDLKNFRKPGEKTFTQRSRLFVGNLPPDITEEEMRKLFEKYGKAGEVFIHKDKGFGFIRLETRTLAEIAKVELDNMPLRGKQLRVRFACHSASLTVRNLPQYVSNELLEEAFSVFGQVERAVVIVDDRGRPSGKGIVEFSGKPAARKALDRCSEGSFLLTTFPRPVTVEPMDQLDDEEGLPEKLVIKNQQFHKEREQPPRFAQPGSFEYEYAMRWKALIEMEKQQQDQVDRNIKEAREKLEMEMEAARHEHQVMLMRQDLMRRQEELRRMEELHNQEVQKRKQLELRQEEERRRREEEMRRQQEEMMRRQQEGFKGTFPDAREQEIRMGQMAMGGAMGINNRGAMPPAPVPAGTPAPPGPATMMPDGTLGLTPPTTERFGQAATMEGIGAIGGTPPAFNRAAPGAEFAPNKRRRY
# B4: DAZAP1: host protein, UniProt Q96EP5 (protein, UniProt Q96EP5 1-407, looked up)
# DAZ-associated protein 1: MNNSGADEIGKLFVGGLDWSTTQETLRSYFSQYGEVVDCVIMKDKTTNQSRGFGFVKFKDPNCVGTVLASRPHTLDGRNIDPKPCTPRGMQPERTRPKEGWQKGPRSDNSKSNKIFVGGIPHNCGETELREYFKKFGVVTEVVMIYDAEKQRPRGFGFITFEDEQSVDQAVNMHFHDIMGKKVEVKRAEPRDSKSQAPGQPGASQWGSRVVPNAANGWAGQPPPTWQQGYGPQGMWVPAGQAIGGYGPPPAGRGAPPPPPPFTSYIVSTPPGGFPPPQGFPQGYGAPPQFSFGYGPPPPPPDQFAPPGVPPPPATPGAAPLAFPPPPSQAAPDMSKPPTAQPDFPYGQYAGYGQDLSGFGQGFSDPSQQPPSYGGPSVPGSGGPPAGGSGFGRGQNHNVQGFHPYRR
# B5: TRA2B: host protein, UniProt P62995 (protein, UniProt P62995 2-288, looked up)
# Transformer-2 protein homolog …: SDSGEQNYGERESRSASRSGSAHGSGKSARHTPARSRSKEDSRRSRSKSRSRSESRSRSRRSSRRHYTRSRSRSRSHRRSRSRSYSRDYRRRHSHSHSPMSTRRRHVGNRANPDPNCCLGVFGLSLYTTERDLREVFSKYGPIADVSIVYDQQSRRSRGFAFVYFENVDDAKEAKERANGMELDGRRIRVDFSITKRPHTPTPGIYMGRPTYGSSRRRDYYDRGYDRGYDDRDYYSRSYRGGGGGGGGWRAAQDRDQIYRRRSPSPYYSRGGYRSRSRSRSYSPRRY
# B6: CIRBP: host protein, UniProt Q14011 (protein, UniProt Q14011 1-172, looked up)
# Cold-inducible RNA-binding …: MASDEGKLFVGGLSFDTNEQSLEQVFSKYGQISEVVVVKDRETQRSRGFGFVTFENIDDAKDAMMAMNGKSVDGRQIRVDQAGKSSDNRSRGYRGGSAGGRGFFRGGRGRGRGFSRGGGDRGYGGNRFESRSGGYGGSRDYYSSRSQSGGYSDRSSGGSYRDSYDSYATHNE
# System: gRNA of HCoV-OC43
# Type: binding
# Settings: type g_36_m; HCoV-OC43-infected HCT-8 cells, 36 hpi, Probe I
row,Molecule,target (spectral count)
1,B1,57
2,B2,26
3,B3,28
4,B4,11

# Same assay, conditions: type g_36_m; uninfected-probe control, 36 hpi, Probe I
row,Molecule,background (spectral count)
1,B1,4
2,B2,1
3,B3,6
4,B4,1

# Same assay, conditions: type n_48_v: 48 hours post-infection, infected cells, OC43 Probe I; unweighted spectral count
row,Molecule,"target (spectral count, OC43 Probe I RNP capture)"
1,B1,41
2,B2,25
3,B3,36
4,B4,18
5,B5,10
6,B6,9

# Same assay, conditions: type n_48_v: 48 hours post-infection, no-probe control on infected cells
row,Molecule,"background (spectral count, no-probe control)"
1,B1,3
2,B2,1
3,B3,3
4,B4,1
5,B5,2
6,B6,1

# System: SARS-CoV-2 gRNA and sgRNAs
# Type: binding
# Settings: not given
row,Molecule,enrichment in SARS-CoV-2 Probe II RNP capture
1,B1,found in the SARS-CoV-2 experiments
2,B2,found in the SARS-CoV-2 experiments
3,B3,found in the SARS-CoV-2 experiments

# Same assay, conditions: Probe II capture; […]; LC-MS/MS LFQ
row,Molecule,target (unweighted spectral count in RNP capture)
1,B4,11
2,B5,8
3,B6,15

# Same assay, conditions: no-probe control pull-down, used as background for Probe II
row,Molecule,background (unweighted spectral count in control)
1,B2,1
2,B3,1
3,B4,1
4,B5,1
5,B6,1

# System: HCoV-OC43 gRNA and sgRNA
# Type: binding
# Settings: 36 hpi; type n_36_v; tested against no-probe control; FDR<10%
row,Molecule,"target (unweighted spectral count, OC43 Probe II capture)"
1,B1,39
2,B2,24
3,B3,23
4,B4,13
5,B5,15

# Same assay, conditions: OC43 Probe II, 12 hpi (type n_12_v), infected cells; tested against no-probe control
row,Molecule,target (unweighted spectral count)
1,B1,11
2,B3,4
3,B5,5

# Same assay, conditions: OC43 Probe II, 24 hpi (type n_24_v), infected cells; tested against no-probe control
row,Molecule,target (unweighted spectral count)
1,B1,20
2,B2,35
3,B3,14
4,B4,7
5,B6,7

# Same assay, conditions: type n_48_v; 48 hpi; OC43 Probe II capture on infected cells
row,Molecule,"target (unweighted spectral count, OC43 Probe II)"
1,B1,39
2,B2,37
3,B3,31
4,B4,22
5,B5,12
6,B6,12

# Same assay, conditions: type n_48_v; 48 hpi; no-probe control on infected cells
row,Molecule,"background (unweighted spectral count, no-probe control)"
1,B1,3
2,B2,1
3,B3,3
4,B4,1
5,B5,2
6,B6,1

# Same assay, conditions: type s_36_m; HCoV-OC43-infected HCT-8 cells, 36 hpi, Probe II
row,Molecule,target (spectral count)
1,B1,39
2,B2,24
3,B3,23
4,B4,13
5,B5,15
6,B6,13

# Same assay, conditions: type s_36_m; uninfected-probe control, 36 hpi, Probe II
row,Molecule,background (spectral count)
1,B1,4
2,B2,1
3,B3,4
4,B4,2
5,B5,2
6,B6,2

# System: SARS-CoV-2 gRNA
# Type: binding
# Settings: not given
row,Molecule,enrichment in SARS-CoV-2 Probe I RNP capture
1,B1,found in the SARS-CoV-2 experiments
2,B2,found in the SARS-CoV-2 experiments
3,B3,found in the SARS-CoV-2 experiments

# Same assay, conditions: […]; LC-MS/MS; Probe I sample (first 199 lines of Table 2)
row,Molecule,target (unweighted spectral count of the protein in the RNP capture)
1,B1,56
2,B2,16
3,B4,13
4,B5,13
5,B6,12
